Article PMC11096469

What was measured:
[1] = biological target: C_(γ2-3) chain (Fc fragment containing the hinge region) (human); experiment: non-reducing SDS-PAGE with immunoblot; culture supernatants of HEK293 transfectants 48 h after transfection; 4-20% gels, reducing and non-reducing; probed with anti-human IgG-Fc and anti-human Cκ; covalent assembly
[2] = biological target: Cκ chain (Vκ-deleted human kappa light chain) (human) (UniProt P01834); experiment: non-reducing SDS-PAGE with immunoblot; culture supernatants of HEK293-BiP cells transfected with LCs alone, 48 h after transfection; reducing and non-reducing gels
[3] = biological target: C_(γ1-3) chain (VH-deleted human IgG1 heavy chain) (human); experiment: non-reducing SDS-PAGE with immunoblot; culture supernatants of HEK293 transfectants 48 h after transfection; 4-20% gels, reducing and non-reducing; probed with anti-human IgG-Fc and anti-human Cκ; covalent assembly

Q: How did the stoichiometry N [1] turn out when “C_(γ2-3) chain (Fc fragment containing the hinge region) (domain or fragment)” was run?
A: 2

Q: How did the stoichiometry N [2] turn out when “Cκ chain (Vκ-deleted human kappa light chain) (from UniProt P01834 1-107) (domain or fragment)” was run?
A: 2

Q: Which stoichiometry N [3] does the source give for “C_(γ1-3) chain (VH-deleted human IgG1 heavy chain) (domain or fragment)” here?
A: 2
